From publication PMC3960984 (Nature structural & molecular biology, 2012)
No end group written: not given here.

B1: fluorescein labeled peptide derived from SRC-1 NR Box 2 (peptide)
peptide: SPSSHSSLTERHKILHRLLQEGSP
modifications: also: fluorescein label, position not given here
B2: fluorescein labeled peptide derived from human PGC-1α NR Box 2 (peptide)
peptide: EEPSLLKKLLLAPA
modifications: also: fluorescein label, position not given here
B3: fluorescein labeled peptide derived from TIF2 NR Box 3 (peptide)
peptide: PVSPKKKENALLRYLLDKDDT
modifications: also: fluorescein label, position not given here

Target: human LRH-1 LBD (residues 299-541), loaded with DLPC (human, UniProt O00482 299-541)
Sequence (O00482 299-541): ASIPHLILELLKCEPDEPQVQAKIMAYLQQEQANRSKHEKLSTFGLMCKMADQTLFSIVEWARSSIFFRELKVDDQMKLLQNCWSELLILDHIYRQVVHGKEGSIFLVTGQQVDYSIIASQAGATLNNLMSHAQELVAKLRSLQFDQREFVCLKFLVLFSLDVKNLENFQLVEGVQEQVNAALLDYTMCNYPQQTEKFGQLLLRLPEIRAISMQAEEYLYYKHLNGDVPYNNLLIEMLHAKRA
Test: fluorescence polarisation

Question: Does B1 bind?
Answer: binds

Question: Does B2 bind?
Answer: binds

Question: Does B3 bind?
Answer: binds
